Measurements as given in the domain aggregation screens of Martell et al. (2025).

test: soluble fraction after stress (log2 fold change); higher = more stays soluble; pooled small domains, quantitative proteomics; conditions: stress: 75 degC
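Further: 20 min heating vs room temperature control held 20 min.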

Q: With “HMQPIAVHIGTENPMKSLSDLSVVRAQFTSGGRVIGSVAVLGPTRMQYSRIVGMMRFMQQRLDLLLKG” as the sequence, how does the “soluble fraction (log2)” value read?
A: -0.0629

Q: Which “soluble fraction (log2)” value does the source give for “HMQPKKLNMYYDYVRQLLESHPYLSAAQIEDRLKEEFTELPMVHSKTVFNFVENIRLQHGINKHA” here?
A: -0.219

Q: Which “soluble fraction (log2)” value does the source give for “HMQPLRQGDFVTSEVVKVQDGTAVLRTAQGTLLSASLTGNLGLLPGDRVETVVVEASPGRFVLRVLDIIR” here?
A: -0.747

Q: Which “soluble fraction (log2)” value does the source give for “HMQPPLTPRELGVLQWAAEGKTTRDTSAILQIHQRTVEMHLKSAREKLDALNTTHAVARALAHGFILPPS” here?
A: -0.0091

Q: Which “soluble fraction (log2)” value does the source give for “HMQPPVDGNEIMEIFGIKGSPVIGVIKSTIKNAILDGIIAPNDREAALELMFRIADENGLKPVVTQTQ” here?
A: -0.0513

Q: For “HMQPRYMLIKTAILDAIERGEMKPGSQVPSENQLAQQHNVSRMTARRALSEMVDDGILMRSQGIGTFVSD”, which “soluble fraction (log2)” value is on record?
A: -0.228

Q: Which “soluble fraction (log2)” value does the source give for “HMQPSFFEMIRMVESYIKQHFENVGNEFPEIARAIYYGIEEERNIYGTASREDMEELLDEGIPILPVP” here?
A: -0.914

Q: Which “soluble fraction (log2)” value does the source give for “HMQPVEHLPTTDPLTTSAASEHERYEKVRWWLEEMQRTYETGDEVRAERIRLSLIEQMYKWEGE” here?
A: -0.513

Q: With “HMQPYTYNPNFLSDYRAYSLGIPLEAYDKLVQFRASGSFVNSMSDFQKITGVSDSLLAVLHSKFRYPK” as the sequence, how does the “soluble fraction (log2)” value read?
A: -0.826

Q: With “HMQQELEEMESGNLVRTAIDSLPINQRTAFILSAYEELPIKEIASIMNRSEGAVEQLLQRAKMNLKKKIK” as the sequence, how does the “soluble fraction (log2)” value read?
A: 0.233

Q: For “HMQQLTDRELEVLRLLAAGLSNNKIGEKLYISATTAKFHVSNIMRKLEVSRRAEAVYAASKRGL”, which “soluble fraction (log2)” value is on record?
A: -2.26

Q: With “HMQQLTQRELTLLRLLANGYNNRQIAEQLQLAESTVKNNLSALFQKIGVRDRTQAVLFAISQGLVP” as the sequence, how does the “soluble fraction (log2)” value read?
A: -1.04

Q: Which “soluble fraction (log2)” value does the source give for “HMQQNDMTELRALAEKIISENDSVINDYKSGQGSALQFLIGQAMKETKGSANPQVISEIFTDLL” here?
A: -0.354

Q: For “HMQQPIPGEAYLTRRPGSDHFQIAFTIDGHRVRESSGTSDKVAAAALAQKRYEEVWREIKLGEK”, which “soluble fraction (log2)” value is on record?
A: -0.0824

Q: For “HMQQPVAYSEFVQSVNDRQIREAQIQGERIVATDNNGNRMTVIWPENDTKLLDELVQNGVLTSIQE”, which “soluble fraction (log2)” value is on record?
A: 0.116

Q: Which “soluble fraction (log2)” value does the source give for “HMQQVDWGSVFGDFGTMFKDQLQPTIDRLRRMAQSDTFRQSSLEEQQILYSLIEKLERSGTA” here?
A: -1.89

Q: Which “soluble fraction (log2)” value does the source give for “HMQQVIEGLDSDRDFITVPEAIALFAVGRQTLYHYIRSGKIPSVNLGQRLTRLSKKQLGELFPLR” here?
A: -1.97

Q: With “HMQRGRTFSIVLNWKGRLLSTQMFFPQFTRPTKEQVTFEINKVYPGAMVYYYNPIEKDPSQPLV” as the sequence, how does the “soluble fraction (log2)” value read?
A: -2.26

Q: For “HMQRLSRREIEVLHWIAEGKSDWQIGQILSISAKTVNYHTENLKRKFGVATRMQAVVSAIKQGAFVPGE”, which “soluble fraction (log2)” value is on record?
A: -4.11

Q: For “HMQRVSDKVAAQLRVLVQEQQLKPGDRLPAERALAVQLGVSRTALREAIAQLASQGLLTARVGGGTYVAEP”, which “soluble fraction (log2)” value is on record?
A: -1.08

Q: For “HMQRYVVDENLKLDKKDINHIINVMRLNVNDQIKLINNGTIYDAIITKIEKNNVLYEIIKKEESK”, which “soluble fraction (log2)” value is on record?
A: -0.661

Q: With “HMQSANQLIKLSRKRKGLTQQELADQAGVSLRTVQRIEKGTEEISGFSLKQISQILEIPLEQLIM” as the sequence, how does the “soluble fraction (log2)” value read?
A: -0.652

Q: For “HMQSLDGPSRAAIVLMAIGPDVAGELIKSFSPAEAQKVSSLLATVRSLDREVMIEVLDSFKNITEH”, which “soluble fraction (log2)” value is on record?
A: -0.339

Q: Which “soluble fraction (log2)” value does the source give for “HMQSLPFSFAKRHGVLLKSINHLHGEAVYRIGANPLSLSEVQRYAGVPLKLSSITVEKFDRLLQETYEHD” here?
A: -1.17

Q: With “HMQSLSDQVFFYLKERIINNEMVPGSIISIEKLTSEFGISNTPVREAIVRLAGLDLVTIHRNKNITVS” as the sequence, how does the “soluble fraction (log2)” value read?
A: -2.19

Q: With “HMQSMSADDWSEKARVLMSAGIIVMGQEAKEKILNLKSLVPLIEAASASNVSMIDSRTFDELLMIIP” as the sequence, how does the “soluble fraction (log2)” value read?
A: -2.46

Q: With “HMQSREISYSEFVTAVEAGDVRNVTLDGEQVRFRRADGSDYVTIRPEDAEVTKLLMANDIPVRAEP” as the sequence, how does the “soluble fraction (log2)” value read?
A: 0.116

Q: With “HMQSRRTPASLVERVRQLNGQYQDKEIAELLNREGIKTAHGNEFNAKRIEMIRRHNGISKHSAQ” as the sequence, how does the “soluble fraction (log2)” value read?
A: -0.075

Q: For “HMQSSTAISFNQFQKSWLSNNIKSFQLGEDKMTVRGSLKNGTQYETIVPSERLFQFIGQHPKDGQVQEMY”, which “soluble fraction (log2)” value is on record?
A: 0.0453

Q: For “HMQSTEQVSVTVTIPPGGELRIDSDTFRVLLNGENVLDKQSGDWLMLSRDLLYLDIESAIGNGLSGNLIYT”, which “soluble fraction (log2)” value is on record?
A: 0.486

Q: With “HMQSVEELLDAIGDERLLHILLEADRKTLQIVVLKMMGYAPKEIGSHIGMPEQTVYTKLRRLREKIKKI” as the sequence, how does the “soluble fraction (log2)” value read?
A: -1.65

Q: For “HMQSYHVGDKVTIKNSASHWATGQSIYNGVKGHTYKIIQTNGHKLLLDQVISWINDGDVYKAGS”, which “soluble fraction (log2)” value is on record?
A: -0.497

Q: For “HMQSYSTIIGVIELRLSGIGYRTTKARYGIGNSTVTLIMNRFKETGFTLDDLKTMEPTKVEALFYPP”, which “soluble fraction (log2)” value is on record?
A: -1.36

Q: With “HMQSYSYYDFQKALQNKTVESVIIEPDKTVPTGTLQIQLKGDTKEELNVSDVTEVEELLQSYDVDYKLRSV” as the sequence, how does the “soluble fraction (log2)” value read?
A: 0.0732

Q: For “HMQTASVRFADGQLEVKQKGLQRVSVYSLNGMTVANKAVQGQDYVTISLPRAAYIVKITTQNGSFTKVI”, which “soluble fraction (log2)” value is on record?
A: -2.18

Q: With “HMQTGRREALEAQLRETGGEAMLARLREIDPEAAARLHPADEKRVIRALEVYEETGKTITQHNLETKAVPP” as the sequence, how does the “soluble fraction (log2)” value read?
A: 0.309

Q: With “HMQTKEVDYGTFMSMIDEKNIGTVEIGDSQIVFTDKDNKNLYETGVMNDPDLAQRLHDAGATFSS” as the sequence, how does the “soluble fraction (log2)” value read?
A: 0.128

Q: For “HMQTLQTTSLRVSENQLFILDQQALPQEKRWLAADNVALLVDHIHTLRVRGAPLIGLSASLLLALLAGRLT”, which “soluble fraction (log2)” value is on record?
A: 0.0717

Q: With “HMQTMNKTNISNFEKYLNSGDVSEVIVVRNKSSVRVTLTPEALRSSEHQAVVGKNILGQENIKGPHYQFEV” as the sequence, how does the “soluble fraction (log2)” value read?
A: -0.0414

Q: With “HMQTPPGRYRHYKGGLYEVIATARHSETLEPMTVYRALYGEQGLWVRPAAMFAEDITLEGVRQPRFARI” as the sequence, how does the “soluble fraction (log2)” value read?
A: -2.39

Q: Which “soluble fraction (log2)” value does the source give for “HMQTRIDISDAVLQWVVRKTQFAALPPKAAAHLTKWVRGEKKPTFNQLEEVSKATGIPLGYFFLQQPPHE” here?
A: -2.19

Q: Which “soluble fraction (log2)” value does the source give for “HMQTTEDMEINAKVDEYLREMYLWNDEYKTLNLDHNKGYEDFFYDALGSMTTNTLDKKTYVGSDGKTYYNL” here?
A: -0.205

Q: Which “soluble fraction (log2)” value does the source give for “HMQTYTYYIAKNDISIGQKITPDMLIEKQVNLGDSKDRYLSREQLETGKYIAVRQIPAGELISSASANE” here?
A: 0.102

Q: For “HMQVAPQVERLLRVMGNETLSLSDIMGRMGLSDKKNFRESYLVPALRSAVIEMTIPDKPNSSLQKYRRIHE”, which “soluble fraction (log2)” value is on record?
A: -0.634

Q: For “HMQVEEKNKKIELYIEGKIKELESNLMYVPNENKKKLLMAFMNRNEDIEIIKTKIDTIFNKSVAAYKENM”, which “soluble fraction (log2)” value is on record?
A: -0.302

Q: For “HMQVIDNHWRPSRDALDILLRDGISEHFIEDAIPEFILYWRERGTQDSNWNSRFLQHIRLQWARYTNAV”, which “soluble fraction (log2)” value is on record?
A: -1.67

Q: With “HMQVPDLYRTLGVGRDATTEAIEAAYVGWQARLSAGEPISTQEWERLRYAHEVLSNPQRRSLYDSLVAET” as the sequence, how does the “soluble fraction (log2)” value read?
A: -0.0937

Q: For “HMQVPVNVSMEILDWVIAHIKIDALPNQIREYLNLWVNGEKEPTFNQVEKVSKATGIPLGYFFLQTPPIED”, which “soluble fraction (log2)” value is on record?
A: -1.79

Q: Which “soluble fraction (log2)” value does the source give for “HMQVQHVWNRLKRPNGDVLYEINRDHPLVSASLDAAADRGAIETLLRQIEQSLPVNQLYVDMNADEHFE” here?
A: -0.602

Q: Which “soluble fraction (log2)” value does the source give for “HMQVSDAAQLAEVVKTVLAENPAAVGDYRKGKKAAIGFLLGQVMRHMRGTANPAVARQLLEQALEDE” here?
A: -0.076

Q: Which “soluble fraction (log2)” value does the source give for “HMQVSDLSAIDSLIDKVLSEQQAAVQDFRSGQGKAMGFLIGKVMQASDGKANPKVIRELMGKKLA” here?
A: 0.0534

Q: For “HMQVSIGERVKLARMSAGLNQRQLGKEMGMSAMAISKYETGEVVPNSRVLIQLSQTLHVPLDFFFRS”, which “soluble fraction (log2)” value is on record?
A: -3.04

Q: Which “soluble fraction (log2)” value does the source give for “HMQVTDADFDQIRLAVLSQLKQNSLTVAELLKIIPFKEQKVMPVIRFLIDNRVLEHGTDMKLTVGNSVK” here?
A: -0.223

Q: With “HMQVTIGADLAEHAARLDVQISDVVKLIKSGVSEGEIKVGLTKLETRLAHPELALVENKLAYLKALIAES” as the sequence, how does the “soluble fraction (log2)” value read?
A: -2.27

Q: For “HMQYALEDDLDSAIKLLTGKGLSGTVAWGWSDTYINVGKKSYSMEFIAKMLLRLGEGSRVTIQVDPA”, which “soluble fraction (log2)” value is on record?
A: -4.62
